Source: US20110263827A1 (AbbVie / Abbott, published 2011)

Tests used:
VEGF [1] = molecular target: T1, VEGF (UniProt P15692-4 27-191, limits assumed, biotinylated); experiment: direct bind ELISA, C-term VD;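 note: ELISA with antibody or DVD-Ig preparations applied to target antigen-coated plates for 1 h at room temperature, TMB colour development, absorbance read at 450 nm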
T1 construct: ELISA antigen

EGFR [2] = molecular target: T2, EGFR (UniProt P00533 25-645, limits assumed, biotinylated); experiment: direct bind ELISA, N-term VD;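 note: antibody or DVD-Ig preparations bound to immobilized target antigen on ELISA plates, 1 h at room temperature, TMB detection read as absorbance at 450 nm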
T2 construct: ELISA antigen; construct not described

EGFR [3] = molecular target: T2, EGFR; experiment: direct bind ELISA, C-term VD;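 note: ELISA with antibody or DVD-Ig preparations applied to target antigen-coated plates for 1 h at room temperature, TMB colour development, absorbance read at 450 nm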
VEGF [4] = molecular target: T1, VEGF; experiment: direct bind ELISA, N-term VD;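 note: antibody or DVD-Ig preparations bound to immobilized target antigen on ELISA plates, 1 h at room temperature, TMB detection read as absorbance at 450 nm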

B1: DVD759 (bispecific antibody)
VH: QVQLQESGPGLVKPSQTLSLTCTVSGYSISSDFAWNWIRQPPGKGLEWMGYISYSGNTRYQPSLKSRITISRDTSKNQFFLKLNSVTAADTATYYCVTAGRGFPYWGQGTLVTVSSASTKGPEVQLVESGGGLVQPGGSLRLSCAASGFTINASWIHWVRQAPGKGLEWVGAIYPYSGYTNYADSVKGRFTISADTSKNTAYLQMNSLRAEDTAVYYCARWGHSTSPWAMDYWGQGTLVTVSS
VL: DIQMTQSPSSMSVSVGDRVTITCHSSQDINSNIGWLQQKPGKSFKGLIYHGTNLDDGVPSRFSGSGSGTDYTLTISSLQPEDFATYYCVQYAQFPWTFGGGTKLEIKRTVAAPDIQMTQSPSSLSASVGDRVTITCRASQVIRRSLAWYQQKPGKAPKLLIYAASNLASGVPSRFSGSGSGTDFTLTISSLQPEDFATYYCQQSNTSPLTFGQGTKVEIKR
notes: DVD-Ig; HC S, LC S; variable parts only
For B1, the EC50 (VEGF [1]) was 0.128 µM and the EC50 (EGFR [2]) was 0.00701 µM.

B2: DVD757 (bispecific antibody)
VH: QVQLQESGPGLVKPSQTLSLTCTVSGYSISSDFAWNWIRQPPGKGLEWMGYISYSGNTRYQPSLKSRITISRDTSKNQFFLKLNSVTAADTATYYCVTAGRGFPYWGQGTLVTVSSASTKGPEVQLVESGGGLVQPGGSLRLSCAASGFTISDYWIHWVRQAPGKGLEWVAGITPAGGYTYYADSVKGRFTISADTSKNTAYLQMNSLRAEDTAVYYCARFVFFLPYAMDYWGQGTLVTVSS
VL: DIQMTQSPSSMSVSVGDRVTITCHSSQDINSNIGWLQQKPGKSFKGLIYHGTNLDDGVPSRFSGSGSGTDYTLTISSLQPEDFATYYCVQYAQFPWTFGGGTKLEIKRTVAAPDIQMTQSPSSLSASVGDRVTITCRASQDVSTAVAWYQQKPGKAPKLLIYSASFLYSGVPSRFSGSGSGTDFTLTISSLQPEDFATYYCQQSYTTPPTFGQGTKVEIKR
notes: as for B1
In the case of B2, the EC50 (VEGF [1]) is reported as 0.528 µM and the EC50 (EGFR [2]) is reported as 0.0145 µM.

B3: DVD780 (bispecific antibody)
VH: EVQLVESGGGLVQPGGSLRLSCAASGYTFTNYGMNWVRQAPGKGLEWVGWINTYTGEPTYAADFKRRFTFSLDTSKSTAYLQMNSLRAEDTAVYYCAKYPHYYGSSHWYFDVWGQGTLVTVSSASTKGPSVFPLAPQVQLQESGPGLVKPSQTLSLTCTVSGYSISSDFAWNWIRQPPGKGLEWMGYISYSGNTRYQPSLKSRITISRDTSKNQFFLKLNSVTAADTATYYCVTAGRGFPYWGQGTLVTVSS
VL: DIQMTQSPSSLSASVGDRVTITCSASQDISNYLNWYQQKPGKAPKVLIYFTSSLHSGVPSRFSGSGSGTDFTLTISSLQPEDFATYYCQQYSTVPWTFGQGTKVEIKRTVAAPSVFIFPPDIQMTQSPSSMSVSVGDRVTITCHSSQDINSNIGWLQQKPGKSFKGLIYHGTNLDDGVPSRFSGSGSGTDYTLTISSLQPEDFATYYCVQYAQFPWTFGGGTKLEIKR
notes: DVD-Ig; HC L, LC L; variable parts only
With B3 the EC50 (EGFR [3]) was 0.409 µM and the EC50 (VEGF [4]) was 0.00219 µM.

B4: DVD790 (bispecific antibody)
VH: EVQLVESGGGLVQPGGSLRLSCAASGFTISDYWIHWVRQAPGKGLEWVAGITPAGGYTYYADSVKGRFTISADTSKNTAYLQMNSLRAEDTAVYYCARFVFFLPYAMDYWGQGTLVTVSSASTKGPSVFPLAPQVQLQESGPGLVKPSQTLSLTCTVSGYSISSDFAWNWIRQPPGKGLEWMGYISYSGNTRYQPSLKSRITISRDTSKNQFFLKLNSVTAADTATYYCVTAGRGFPYWGQGTLVTVSS
VL: DIQMTQSPSSLSASVGDRVTITCRASQDVSTAVAWYQQKPGKAPKLLIYSASFLYSGVPSRFSGSGSGTDFTLTISSLQPEDFATYYCQQSYTTPPTFGQGTKVEIKRTVAAPSVFIFPPDIQMTQSPSSMSVSVGDRVTITCHSSQDINSNIGWLQQKPGKSFKGLIYHGTNLDDGVPSRFSGSGSGTDYTLTISSLQPEDFATYYCVQYAQFPWTFGGGTKLEIKR
notes: as for B3
For B4, the EC50 (EGFR [3]) was 0.0768 µM and the EC50 (VEGF [4]) was 0.0159 µM.
